Measurements: patent US20140179896A1 (published 2014)
Numbering of substitutions follows the chain as printed.

B1: M5FL (designed binder)
chain: VSDVPRDLEVVAATPTSLLISWRHPHFPTRYYRITYGETGGNSPVQEFTVPLQPPLATISGLKPGVDYTITGYAVTKERNGRELFTPISINYRT
notes: extension and tag left out
B2: E26 (designed binder)
chain: EVVAATPTSLLISWRHPHFPTRYYRITYGETGGNSPVQEFTVPLQPPTATISGLKPGVDYTITGYAVTVERNGRELMTPISINYRT
notes: Del 1-8 10Fn3 clone; Tags not included
B3: E5 (designed binder)
chain: B2 chain with V69D, E70G, R71Q, E75L, M77N, T78V
notes: Del 1-8 10Fn3 clone; Flag tag of the radioactive-assay form not included
B4: E18 (designed binder)
chain: B2 chain with M77N
B5: E19 (designed binder)
chain: B2 chain with E75H
notes: as for B2
B6: E25 (designed binder)
chain: B2 chain with V69L
notes: as for B3
B7: E29 (designed binder)
chain: B2 chain with E75V
notes: as for B2
B8: E3 (designed binder)
chain: B2 chain with V69D, E70G, G73D, E75K, T78V
notes: as for B3
B9: E9 (designed binder)
chain: B2 chain with V69E, E75T, M77R
notes: as for B3
B10: E28 (designed binder)
chain: B2 chain with V69L, T78V
notes: as for B3
B11: M3 (designed binder)
chain: B1 chain with L56A
notes: 10Fn3 clone with WT N-terminus; Tags not included
B12: M1 (designed binder)
chain: B1 chain with P55T, L56V, K77L, G81D
notes: as for B11
B13: M2 (designed binder)
chain: B1 chain with L56A, K77W
notes: as for B11
B14: M4 (designed binder)
chain: B1 chain with R30H, L56A, K77T, N80T
notes: as for B11
B15: M6 (designed binder)
chain: B1 chain with R30H, L56A, K77L, N80D
notes: as for B11
B16: M7 (designed binder)
chain: B1 chain with P55T, L56T, K77W
notes: as for B11
B17: M8 (designed binder)
chain: B1 chain with R30H, L56A, N80S
notes: as for B11
B18: M5FL C100 (designed binder)
chain: MGVSDVPRDLEVVAATPTSLLISWRHPHFPTRYYRITYGETGGNSPVQEFTVPLQPPLATISGLKPGVDYTITVYAVTKERNGRELFTPISINYRTEIDKPCQHHHHHH
notes: unmodified M5FL with C-terminal extension, Cys100 and His tag; a significant percentage is produced with the initial methionine removed; also called C100-form of the M5FL protein
B19: M5FL-PEG20 (designed binder)
chain: B18 chain
modifications: linear 20 kD PEG coupled by maleimide chemistry to the cysteine residue at position 100
notes: also called M5FL 20K PEG
B20: M5FL-PEG40 (designed binder)
chain: B18 chain
modifications: branched 40 kD PEG coupled by maleimide chemistry to the cysteine residue at position 100
notes: also called M5FL 40K PEG

Key:
[1] = molecular target: human KDR/EpoR fusion (phKE8) on Ba/F3 cells (human, UniProt P35968 20-764; P19235 251-508, limits assumed); assay: cell-based or functional assay
[2] = molecular target: murine VEGFR-2/EpoR chimera (flk-1/EpoR fusion, pmKE2) on cells (mouse; human, UniProt P35918 20-762; P19235 251-508, limits assumed); assay: cell-based or functional assay
Sequence of murine VEGFR-2/EpoR chimera (flk-1/EpoR fusion, pmKE2) on cells (P35918 other isoform, or with tags, fused parts or gaps mutant limits assumed, form in doubt): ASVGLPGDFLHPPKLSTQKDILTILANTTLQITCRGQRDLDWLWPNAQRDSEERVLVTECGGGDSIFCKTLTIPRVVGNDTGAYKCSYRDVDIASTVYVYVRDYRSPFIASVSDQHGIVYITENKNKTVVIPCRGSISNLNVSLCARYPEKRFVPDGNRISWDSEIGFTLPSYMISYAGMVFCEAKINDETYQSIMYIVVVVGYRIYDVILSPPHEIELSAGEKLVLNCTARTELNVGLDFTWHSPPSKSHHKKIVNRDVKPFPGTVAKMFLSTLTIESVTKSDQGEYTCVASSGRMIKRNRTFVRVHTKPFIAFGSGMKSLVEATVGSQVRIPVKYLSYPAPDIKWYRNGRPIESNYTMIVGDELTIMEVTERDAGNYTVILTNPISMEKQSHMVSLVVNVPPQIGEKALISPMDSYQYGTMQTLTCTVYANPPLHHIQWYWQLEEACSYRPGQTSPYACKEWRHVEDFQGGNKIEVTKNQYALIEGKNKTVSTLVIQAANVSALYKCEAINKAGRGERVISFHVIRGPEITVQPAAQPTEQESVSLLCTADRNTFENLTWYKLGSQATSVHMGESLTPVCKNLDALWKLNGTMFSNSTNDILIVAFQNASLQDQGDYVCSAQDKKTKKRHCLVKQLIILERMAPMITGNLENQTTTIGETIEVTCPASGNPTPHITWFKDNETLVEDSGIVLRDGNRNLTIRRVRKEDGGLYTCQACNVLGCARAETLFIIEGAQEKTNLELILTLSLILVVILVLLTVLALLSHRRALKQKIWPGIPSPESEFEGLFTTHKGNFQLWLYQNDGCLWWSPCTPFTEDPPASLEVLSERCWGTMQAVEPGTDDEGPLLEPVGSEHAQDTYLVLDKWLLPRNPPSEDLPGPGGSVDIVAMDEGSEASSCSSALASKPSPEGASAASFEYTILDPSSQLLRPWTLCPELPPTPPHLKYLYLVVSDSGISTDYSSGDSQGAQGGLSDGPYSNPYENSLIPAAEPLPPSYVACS

[3] = molecular target: T1, mouse vascular endothelial growth factor receptor-2 Fc chimera (Flk-1-Fc) (mouse, UniProt P35918 20-762); assay: BIAcore, target-Fc immobilized
T1 construct: purchased from R&D Systems; also called mouse VEGF-R2-Fc; not shown: Fc part of the purchased chimera
Experimental: (§1) The binding kinetics of fibronectin-based scaffold proteins binding proteins to the target was measured using BIAcore 2000 biosensor (Pharmacia Biosensor). Human and mouse VEGF-R2-Fc fusions were immobilized onto a CM5 sensor chip and soluble binding proteins were injected at concentrations ranging from 0 to 100 nM in buffer 0 (10 mM HEPES, 150 mM NaCl, 0.005% Tween 20, pH 7.4). Sensorgrams were obtained at each concentration and were evaluated using a program, BIA Evaluation 2.0 (BIAcore), to determine the rate constants kₐ (kₒₙ) and kd (koff.) The affinity constant, KD was calculated from the ratio of rate constants […].
T1 sequence (P35918 20-762, change not shown): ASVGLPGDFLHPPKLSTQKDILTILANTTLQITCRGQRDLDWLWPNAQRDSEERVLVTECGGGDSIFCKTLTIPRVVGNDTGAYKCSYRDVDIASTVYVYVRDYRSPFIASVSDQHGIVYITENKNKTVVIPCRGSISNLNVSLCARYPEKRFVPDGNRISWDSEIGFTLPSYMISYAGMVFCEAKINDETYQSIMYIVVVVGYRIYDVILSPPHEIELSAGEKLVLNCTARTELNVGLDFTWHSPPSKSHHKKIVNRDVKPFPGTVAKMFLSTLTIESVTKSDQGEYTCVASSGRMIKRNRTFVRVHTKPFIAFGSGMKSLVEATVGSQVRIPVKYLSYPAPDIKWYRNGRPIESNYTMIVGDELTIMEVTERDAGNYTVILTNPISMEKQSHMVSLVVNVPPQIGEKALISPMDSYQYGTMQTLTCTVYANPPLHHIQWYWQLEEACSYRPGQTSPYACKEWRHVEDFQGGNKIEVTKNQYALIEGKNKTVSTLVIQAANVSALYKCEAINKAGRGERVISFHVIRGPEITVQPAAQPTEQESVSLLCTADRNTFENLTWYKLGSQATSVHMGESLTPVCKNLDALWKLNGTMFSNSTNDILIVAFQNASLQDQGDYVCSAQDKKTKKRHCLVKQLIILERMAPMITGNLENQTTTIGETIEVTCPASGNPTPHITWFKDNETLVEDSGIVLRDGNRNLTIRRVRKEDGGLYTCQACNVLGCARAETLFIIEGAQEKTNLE

[4] = molecular target: T2, human vascular endothelial growth factor receptor-2 Fc chimera (KDR-Fc) (human, UniProt P35968 20-764); assay: BIAcore, target-Fc immobilized
T2 construct: range 1-764; purchased from R&D Systems; also called hKDR; human VEGF-R2-Fc; not shown: human IgG1 Fc
Experimental: as §1

[5] = molecular target: full-length human KDR on cells (human, UniProt P35968 20-1356); assay: cell-based or functional assay
[6] = molecular target: T3, mouse vascular endothelial growth factor receptor-2 Fc chimera (Flk-1-Fc) (mouse, UniProt P35918 20-762); assay: binding to 1 nM Flk-1-Fc, % of input; radioactive equilibrium binding (assay not given)
T3 construct: Purchased from R&D Systems; also called mouse VEGF-R2; not shown: Fc part of the purchased chimera
Experimental: (§2) To prepare ³⁵S-labeled binding proteins for analysis, mRNA was prepared as described above for RNA-protein fusion production but the linker ligation step was omitted. The mRNA was expressed using rabbit reticulocyte lysate translation kit (Ambion) in the presence of ³⁵S-labeled Met at 30° C. for 1 hour. Expressed protein was purified on M2-agarose Flag beads (Sigma) as described above. This procedure produced the encoded protein without the nucleic acid tail. In a direct binding assay, VEGF-R2-Fc fusions in concentrations ranging from 0 to 200 nM were added to a constant concentration of the purified protein (0.2 or 0.5 nM) and incubated at 30° C. for 1 hour in buffer B. The receptor-binder complexes were captured using Protein A magnetic beads for another 10 minutes at room temperature using a Kingfisher™ The beads were washed with six reaction volumes of buffer B. The protein was eluted from the beads with 100 μL of 0.1 M KOH. […] of the reaction mixture and elution were dried onto a LumaPlate-96 (Packard) and the amount of ³⁵S on the plate was measured using a TopCount NXT instrument (Packard). The amount of fibronectin-based scaffold protein bound to the target was estimated as a percent of radioactivity eluted from Protein A magnetic beads compare to radioactivity in the reaction mixture. Nonspecific binding of fibronectin-based scaffold proteins to the beads was determined by measuring binding in the absence of KDR-Fc and represented less than 1-2% of the input. Specific binding was obtained through subtraction of nonspecific binding from total binding. Data was analyzed using the GraphPad Prizm software (GraphPad Software, Inc, San Diego, Calif.), fitted using a one site, non-linear binding equation.
T3 sequence (P35918 20-762, change not shown): as above

[7] = molecular target: full-length human KDR on cells (human, UniProt P35968 20-1356); assay: cell-based or functional assay; remark: listed apart in the source
[8] = molecular target: T4, human vascular endothelial growth factor receptor-2 Fc chimera (KDR-Fc) (human, UniProt P35968 20-764); assay: binding to 1 nM KDR-Fc, % of input; radioactive equilibrium binding (assay not given)
T4 construct: range 1-764; also called human VEGFR-2; hKDR; not shown: human IgG1 Fc
Experimental: as §2

[9] = molecular target: T3, mouse vascular endothelial growth …; assay: radioactive equilibrium binding (assay not given)
Experimental: as §2

[10] = molecular target: T4, human vascular endothelial growth …; assay: radioactive equilibrium binding (assay not given)
Experimental: as §2

[11] = molecular target: T3, mouse vascular endothelial growth …; assay: clones from the 159Q(8)L library; binding per FIG. 4
Experimental: as §2

[12] = molecular target: T1, mouse vascular endothelial growth …; assay: SPR (BIAcore), target immobilized
Experimental: (§3) In vitro affinity measurements were made using surface plasmon resonance (SPR) (BIAcore) with both the human and mouse VEGF-receptor target proteins immobilized via amide chemistry on the BIAcore chip.
as §1

[13] = molecular target: T2, human vascular endothelial growth …; assay: SPR (BIAcore), target immobilized
Experimental: as §3, §1

Row | Binder | Binding to 1 nM FLK, % [6] [%] | Binding to 1 nM KDR, % [8] [%] | Kd [9] [nM] | Kd [10] [nM] | binding result [11] | further results
1 | B1 | – | – | – | – | – | Inhibition of VEGF-induced proliferation, Ba/F3-KDR (IC50, nM) [1]: 3.9 nM; Inhibition of VEGF-induced proliferation, Ba/F3-Flk (IC50, nM) [2]: 5.1 nM; Kd [3]: 2.1 nM; koff [3]: 0.000582 s⁻¹; kon [3]: 280000 M⁻¹ s⁻¹; Kd [4]: 0.89 nM; koff [4]: 9.2e-05 s⁻¹; kon [4]: 100000 M⁻¹ s⁻¹; Inhibition of VEGF-induced proliferation of HUVEC cells (IC50, nM) [5]: 8.5 nM
2 | B2 | 20 | 27 | 2.05 | 1.66 | – | HUVEC proliferation assay: decrease in proliferation [7]: ~40%
3 | B3 | 10 | 26 | 3.2 | 0.4 | – | –
4 | B4 | – | – | – | – | – | HUVEC proliferation assay: decrease in proliferation [7]: ~40%
5 | B5 | 40 | 38 | 0.66 | 1.3 | – | HUVEC proliferation assay: decrease in proliferation [7]: ~40%
6 | B6 | 28 | 41 | 1.3 | 1.58 | – | –
7 | B7 | 44 | 41 | 0.91 | 1.51 | – | HUVEC proliferation assay: decrease in proliferation [7]: ~40%
8 | B8 | 14 | 37 | 5.4 | 0.96 | – | –
9 | B9 | 34 | 24 | 1.4 | 2.37 | – | –
10 | B10 | 21 | 19 | 2.1 | 1.63 | – | –
11 | B11 | – | – | – | – | binds | –
12 | B12 | – | – | – | – | binds | –
13 | B13 | – | – | – | – | binds | –
14 | B14 | – | – | – | – | binds | –
15 | B15 | – | – | – | – | binds | –
16 | B16 | – | – | – | – | binds | –
17 | B17 | – | – | – | – | binds | –
18 | B18 | – | – | – | – | – | Kd [12]: 2.1 nM; koff [12]: 0.0003 s⁻¹; kon [12]: 146000 M⁻¹ s⁻¹; Kd [13]: 0.9 nM; koff [13]: 6.7e-05 s⁻¹; kon [13]: 74000 M⁻¹ s⁻¹
19 | B19 | – | – | – | – | – | Kd [12]: 22.8 nM; koff [12]: 0.00055 s⁻¹; kon [12]: 24000 M⁻¹ s⁻¹; Kd [13]: 5.9 nM; koff [13]: 5.4e-05 s⁻¹; kon [13]: 9000 M⁻¹ s⁻¹
20 | B20 | – | – | – | – | – | Kd [12]: 57.1 nM; koff [12]: 0.00054 s⁻¹; kon [12]: 10000 M⁻¹ s⁻¹
